Test results from US20230295751, “Biological Detection Sensor Chip and COVID-19 Test Kit” (published 2023).

What was measured:
[1] = test system: Negative control virus without spike protein; assay: SPR; settings: 5'-NH2 with 12C spacer
[2] = molecular target: Bovine serum albumin (BSA) (Bos taurus, UniProt P02769 P02769:25-607); assay: SPR
Sequence of Bovine serum albumin (BSA) (P02769 25-607, one chain of several): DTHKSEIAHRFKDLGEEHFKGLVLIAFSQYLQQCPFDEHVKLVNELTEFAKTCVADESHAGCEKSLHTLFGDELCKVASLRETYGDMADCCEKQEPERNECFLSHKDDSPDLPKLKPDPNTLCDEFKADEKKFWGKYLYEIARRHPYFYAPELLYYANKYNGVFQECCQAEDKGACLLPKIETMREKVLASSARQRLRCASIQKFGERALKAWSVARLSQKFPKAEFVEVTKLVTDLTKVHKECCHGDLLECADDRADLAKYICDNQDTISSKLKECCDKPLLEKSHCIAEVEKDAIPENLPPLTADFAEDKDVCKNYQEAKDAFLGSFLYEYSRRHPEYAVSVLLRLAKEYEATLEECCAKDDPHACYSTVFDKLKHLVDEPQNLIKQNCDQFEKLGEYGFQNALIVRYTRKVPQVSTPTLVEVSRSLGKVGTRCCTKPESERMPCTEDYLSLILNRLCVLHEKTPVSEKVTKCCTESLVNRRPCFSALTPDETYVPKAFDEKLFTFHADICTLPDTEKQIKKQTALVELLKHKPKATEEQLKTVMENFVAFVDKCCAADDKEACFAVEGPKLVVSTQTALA

| Molecule | binding [1] [RU] | binding result [2] |
| --- | --- | --- |
| CAGCACCGACCTTGTGCTTTGGGAGTGCTGGTCCAAGGGCGTTAATGGACA [Capturing aptamer against SARS-CoV-2 SRBD] | 23 | – |
| Capturing aptamer against SARS-CoV-2 SRBD (ssDNA, 5'-NH2 with 12C spacer) DNA: CAGCACCGACCTTGTGCTTTGGGAGTGCTGGTCCAAGGGCGTTAATGGACA | – | no binding |
